{
  "source": "paper PMC2187453",
  "target": "TCGF receptor on B6.1 cells (mouse CTL line B6.1.SF.1) (mouse (endogenous in the B6.1 CTL line))",
  "test": "radioligand binding",
  "data": [
    {"sequence": "T cell growth factor (TCGF), human, biosynthetically radiolabeled (3H-TCGF) (from UniProt P60568 21-153) (ligand)", "values": [
      {"measurement": "Kd", "result": 0.022, "unit": "nM"}
    ]}
  ]
}
